The target of this assay is T1, neuromedin-B preferring receptor (NMB-R) of C6 rodent glioblastoma cells (rodent), P24053.
T1 chain: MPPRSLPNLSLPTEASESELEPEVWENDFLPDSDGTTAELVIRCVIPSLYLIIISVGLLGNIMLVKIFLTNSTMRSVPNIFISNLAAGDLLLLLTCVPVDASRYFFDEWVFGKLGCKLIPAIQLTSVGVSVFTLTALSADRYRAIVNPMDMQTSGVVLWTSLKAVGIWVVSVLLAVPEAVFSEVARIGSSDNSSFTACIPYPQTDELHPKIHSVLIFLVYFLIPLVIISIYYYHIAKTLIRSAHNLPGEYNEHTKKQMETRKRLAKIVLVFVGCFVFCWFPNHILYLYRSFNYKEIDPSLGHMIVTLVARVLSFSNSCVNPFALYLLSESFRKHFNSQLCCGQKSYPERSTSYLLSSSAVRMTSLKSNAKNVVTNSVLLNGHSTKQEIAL
Description: 125I-NMB competition, C6 cells.

Where no end group is shown, it is not given here.

With EQRYGNQWAVGHLM-NH2 (also: name truncated at 'p…', N-terminal modification unresolved) [p…-NH2], the IC50 (usually the concentration that inhibits the measured activity by half) was determined as 3.36 nM.
